Data reported in the supplement of paper PMC9170038.

Tested on: K4 kissing-loop RNA reporter
Assay: apparent KD of K4 kissing-loop reporter; higher = weaker reporter binding
Conditions: Eterna round: R107
Procedure: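 RNA-MaP round R107: designed RNA switches with theophylline, tryptophan, arginine or FMN aptamers are transcribed on-chip within common flanks. They are titrated with a labelled K4 kissing-loop RNA reporter in RNA-MaP buffer (100 mM Tris pH 7.5, 80 mM KCl, 4 mM MgCl2), without ligand or with the indicated ligand. Median apparent KD per design.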

[1] = input ligand: theophylline 20 uM
[2] = input ligand: tryptophan 2.4 mM
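Further: bound reporter read as fluorescence of individual clusters on recovered sequencing chips by microscopy, with normalized cluster intensities fitted with a binding model.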

Sequence | apparent KD of K4 kissing-loop reporter (input ligand: FMN 200 uM) [nM] | apparent KD of K4 kissing-loop reporter (input ligand: arginine 13.2 mM) [nM] | apparent KD of K4 kissing-loop reporter (input ligand: none) [nM] | apparent KD of K4 kissing-loop reporter [1] [nM] | apparent KD of K4 kissing-loop reporter [2] [nM]
AGCCGAAAGGCGAGUGCUGUCACUCCGGAAGGAGCGCCCAAAAGGGCAGGUAGGUCGCCGGAGUGAUGUUCCGGUGCAGCACUCA [Omei KL Arginine A Exc B v3] | 572 | 497 | 784 | 533 | 482
AGGACGUGAGAAGAUACCAGAGAAUAAUGCAGUGAUGUUGCUAAAUAUAAUUUAAUAUAACUCCCUUGGCAGCUUAAGUUAGUCU [Theophylline b same state] | 75.2 | 120 | 98.7 | 115 | 73.9
AGGCAAUAUGCGGCCGCCACUUUCAGUGAUGUUGAGACGCGGAAUGUUGUAUAAUAUCGCCACGAAAGGACCGGGCAAGGGAAAG [theeternabot_exclusion_KL_Trp_B_5] | 691 | 434 | 542 | 423 | 355
AGGCACGAGCAAGGAUAUCGAGUAGAGUGAUGUUCUGCCUGGGUUGGCGCGCAAGGGCCUUCCCAGCGAGAAGGUGCUCGUGCCU [#2 Same State - FMN A Attempt #11 (HarryS)] | 221 | 840 | 916 | 682 | 634
AGGCCACACAGCGAGUGAUGUUUGCGUUAUCGAGGACCGGUACGGCCGCCACUCGGCCUUUAGCGCCUUACCAAUUAGGUGUUGC [theeternabot_sameState_KL_Trp_A_46] | 453 | 430 | 731 | 556 | 647
AGGCCCGGCCGAAAGGCCGGGCCAAGAGAUACCAGCAGCGAAAGCUGCCCUUGGCAGCUCACUUAGUGAUGUUAAGAAUAGAACA [SS Theo A Tesla 1] | 538 | 464 | 375 | 485 | 390
AGGGAUGAUGGAUAAAUAAACAAAAGGGAUACCAGUCAAAUAAUAGGCCCUUGGCAGCUUUAGAUCAGUGAUGUUGAAGAUAUUG [Theophylline A Same State; Euphoria Solution] | 84.1 | 127 | 93 | 159 | 78.5
AGGGAUGAUGGAUAAAUAAACAAAGGAGAUACCAGUCAAAUAAUAGGCCCUUGGCAGCUUCAGAUCAGUGAUGUUGAAGAUAUUG [#09 K4 Theophylline A Same State] | 109 | 67.1 | 139 | 148 | 110
AGGGAUGUUAAAGGAUAUAGAAAGUGAUGUUAGAAAGUGAGUGAUGUUGAUGUAAGUGAUGUUAUGUUAGAAGGUUAACAAAACG [ab] | 229 | 120 | 200 | 215 | 170
AGGGUAAGGCGUUAACAUGACACCUGGGAAGGAGCGCGGUACACCGCAGGUAGGUCGCCCAGUGAUGUUGGGCGUAAGUAUGAGU [KL-XArg-A22] | 137 | 179 | 185 | 180 | 137
AGGUCACCACUACAGUGAUGUUGUAGGGAGCAGGAUAUGCAGAAAUGCAGAAGGGCUCGCUCCCGGUGACCGAAUGAAACAUUCA [Omei KL FMN A SS A v6] | 432 | 258 | 318 | 289 | 282
AGGUGCUACGGAAGGAGCGCACCAGUGAUGUUGGUGUGUGACCGUGACAUGGCAGUCAAGGUGCAGGUAGGUCGCCGUGGCCAUA [Rigela] | 138 | 135 | 140 | 156 | 136
AGUAAUGAGUGAUGUUCAAUUAGUAAGGAUACCAGUAAUUCAAAAUGCCCUUGGCAGCUUAACGCUACCAAUAGAUUAAUAAUGG [First try - Theophylline A] | 128 | 180 | 119 | 182 | 95.5
AGUAGUUGGACGGCCGCCACUAGAACGCCUUUGCCAAAGGCAGAGGACUAGAGUGAUGUUCUAGCUAGGACCGGGUCCAACUACA [Omei KL Tryp B SS A v4] | 224 | 232 | 308 | 127 | 1220
AGUAGUUGGACGGCCGCCACUAGAACGGCUUUGCCAAAGGCAGAGCACUAGAGUGAUGUUCUAGCUAGGACCGGGUCCAACUACA [Omei KL Tryp B SS A v3] | 662 | 204 | 191 | 403 | 773
AGUCCGCUCCAAGGAUAUAGUCCGGCUGCGCGUCAGUGAUGUUGAAGAAGUAUCGCGUCUCUAUAGCUAGAAGGUGGCGCAAUUG [theeternabot_sameState_KL_FMN_B_20] | 715 | 471 | 989 | 696 | 782
AGUGAUAUAUGAGGAUAUGGGUUUGUUAAUGAGUUAUUUUUAGUGUUGUUUGGUUAGUGAUGUUAUUUAGAAGGCGUGAGUGAUG [rrwswwmjmullin] | 93.7 | 89.4 | 81.9 | 111 | 76.5
AGUGAUGUUGUGUUAUGUUAGGGAAGUGAUCGAGGACCGGUACGGCCGCCACUCGAGUGAUGAGUGAGUGAUGUUUGUUUAGGGA [yytmullin] | 1030 | 670 | 1610 | 1070 | 590
AGUGCACUGUCAGGAUAUGUACAGUGAUGUUGUGUAUGUCAGCAAGUCAAAGACUUGCUCUUCUGUGCAGAAGGGACUGUGUACA [Omei KL FMN B Exc A v5] | 755 | 464 | 628 | 506 | 554
AGUGGUGUAUCUUUUAAGAGUGAUGUUUUUCGAGGACCGGUACGGCCGCCACUCGAGUGAUGAGAGCGUCGUUGUGGUGAUUAGU [#15 K4 Tryptophan A Exclusion] | 814 | 582 | 877 | 860 | 479
AUAGGAGUGAUGUUCCUUAGUUUCUCCGAUACCAGUAUGGAAACAUACCCUUGGCAGCGGGAAACCGCUGAUUAGGAAACUAGUC [Theophylline A K4 7] | 256 | 271 | 282 | 242 | 223

Sequence | apparent KD of K4 kissing-loop reporter (input ligand: FMN 200 uM) [nM] | apparent KD of K4 kissing-loop reporter (input ligand: arginine 13.2 mM) [nM] | apparent KD of K4 kissing-loop reporter (input ligand: none) [nM] | apparent KD of K4 kissing-loop reporter [1] [nM] | apparent KD of K4 kissing-loop reporter [2] [nM]
AUCAUUGAGUGAUGUUCAAUGGGUUUUCCCAAGGAUAUUCGGAGCUGAAGAAGGUGGCCCUCGAUAUCAGUAUCAACCUGAAAGC [theeternabot_exclusion_KL_FMN_A_11] | 360 | 340 | 381 | 388 | 243
AUCGAUAUCAGAGGAUAUGCUUAAUUGAUUUAUUAUUAUUUAUUAUGCAGUGAUGUUGCAUUUUUUGCAGAAGGCUGAUUUCGAA [JR_SSFMNB_Sub022] | 112 | 150 | 126 | 137 | 117
AUGCGCGUGCGAUGAAAAUCGCACGCGCAUCGAGGACCGGUACGGCCGCCACUCGCUCGCGCCGAGUGAUGUUCGGCCGGCGAAC [#2 Same State - Tryptophan A Attempt #4 (HarryS)] | 278 | 268 | 267 | 217 | 506
AUGGUGGAGGAGUGAUGUUCUUGGAGUAGGUAGGAUAUGAGUGAUGUUAGAAGGAUCGGAGUGAUGUUCCAGGUGGUUGUGUUGU [KL-SSFMN-A2] | 570 | 303 | 765 | 453 | 412
AUGGUUGUCGUAGGAUAUGUAGGUAAUUCCUAUAGCAGUGAUGUUGCUAAUAUCUUGGAAGAAGGAACAGAAGGACGAUAACCAC [KL-SSFMN-B1 #analogue] | 123 | 109 | 124 | 109 | 106
AUGUCUGAUAGCAGUGAUGUUGCUUCGGAUACCAGACGAGAUCAUGUCCCUUGGCAGCUGACACGGCACGUGCUAGGUUAGAUGA [whbob_Ex_Theo_A_th72] | 121 | 98.3 | 115 | 116 | 113
AUUAAUAACUGAGGAUAUCGUUUUACUGUAGUGAUGUUACAGAAAGUUCAAAUUAUAAUUUCUAUUCGAGAAGGCAGAAUAAUUA [JR_SSFMNB_Sub026] | 77.7 | 68.9 | 53.5 | 62.8 | 48.1
AUUAAUUUCAGAGGAUAUCGUUAUUUUAUUUAAUUUAUUCAUUUAUGCAGUGAUGUUGCUAUUAUUCGAGAAGGCUGAUUUAUAA [JR_ExcFMNB_Sub006] | 82.1 | 83.5 | 34 | 70.4 | 35.3
AUUAAUUUCAGAGGAUAUCGUUAUUUUUUAUAUUUUAUUCAUUUAUGCAGUGAUGUUGCUAUUAUUCGAGAAGGCUGAUUUAUAA [JR_ExcFMNB_Sub004] | 86.4 | 105 | 44.9 | 100 | 50.9
AUUAUAUUGUGAAGGAGCGCGAAUAGCAGUGAUGUUGCUAUCAAACGAUAUAUUAUUUACACGCAGGUAGGUCGCACAAUAUAUA [JR_Nu_SSArginiB_Sub022] | 171 | 125 | 149 | 124 | 155
AUUCACCUGUCGGCCGCCACUGCGUUAGCAGUAUCGGGCAGAAACUUCGCAGUGAUGUUGCGACUCAGGACCGGGACGUUGAGGA [theeternabot_exclusion_KL_Trp_B_29] | 445 | 406 | 468 | 454 | 504
AUUCAGAUCUGAAGGAGCGCCUUGACAAAUUACUGCUUUGAGCAGUGAUGUUGCUCAAUUAGGCAGGUAGGUCGCAGAUCUAACC [Arg B Ex t7] | 377 | 335 | 414 | 383 | 389
AUUCUUAUAAUAACACUAUAUACAACUGAAGGAGCGACAAUAAAGUCAGGUAGGUCGCAGAAUAAAUGAGUGAUGUUCAUUUUUA [JR_ExcArginiA_Sub011] | 129 | 153 | 129 | 150 | 86.8
AUUGAACAAGUGAUGUUUGUAUUUUCCGAAGGAGCGUCUAAUAAGACAGGUAGGUCGCGGUUUCUCUUAAUAAUCAGGUCUUUAA [JR_Nu_ExcArginiA_Sub021] | 279 | 287 | 279 | 292 | 238
AUUUAAUGUAUAGAUUAUAUACAUUAUUCAGAGGAUAUGCAUUGAAGCAGAAGGCUGGGUGUAGUGAUGUUGCAAUUUUAAUUUA [whbob_SS_FMNA__2th172] | 118 | 184 | 159 | 299 | 84.1
AUUUAAUUAACUGAUACCAGACUUUUUGUUUUGUUUAUUACUAGUGAUGUUAGUGUUUCUGUCCCUUGGCAGCAGAAUCUACUUA [JR_ExcTheophyB_Sub019] | 172 | 297 | 191 | 364 | 165
AUUUAUUCGAGUGAUGUUCGUGAUUUUUCAGAGGAUAUGCGUAAUAGCAGAAGGCUGUAUUUAUAUAUAUUUUGAUUUUUUUAAA [JR_Nu3_ExcFMNA_Sub024] | 82.2 | 122 | 64.6 | 99.4 | 61.8
AUUUUUUUGUCAGGAUAUUAGUGUGGGUUUGGUUUGUUAGUGAUGUUGAUAUUUGGUUUAUGUAUUUAAGAAGGGAUUUAGCGGU [frrvemullin] | 563 | 359 | 408 | 492 | 375
CACGGAGUGAUGUUCCGACCGAGGAACGAUACCAGACAAGUAUACGUCCCUUGGCAGCGUUUCUUAUAUAGUCAACGUUACCGUA [Theo A Ex t3] | 395 | 469 | 507 | 537 | 405
CAGAACUUAUAUAGAAACUAUAUAAGAGAUACCAGUCAAAUUAAAGACCCUUGGCAGCUCAGGCGAGUGAUGUUCGCAGGCUAAC [Astros-Gfrank-modulation#1] | 99.3 | 94.2 | 102 | 106 | 78.8
CAUACGCAUGGAGGAUAUGAGAUUACUCAUAUUAUUUAAUAUUCUCAGUGAUGUUGAGAUAUAAACUCAGAAGGCCAUGUGUAUG [Ex FMN B 1] | 184 | 152 | 143 | 166 | 153
